This assay has as its target full-length human poly(A)-binding protein (PABP, PABPC1) (human, UniProt P11940 1-636). Description: FRET or BRET. A general note: BRET reads energy transfer from a luciferase to a nearby fluorophore.

full-length human poly(A)-binding protein (PABP, PABPC1), sequence (P11940 whole entry): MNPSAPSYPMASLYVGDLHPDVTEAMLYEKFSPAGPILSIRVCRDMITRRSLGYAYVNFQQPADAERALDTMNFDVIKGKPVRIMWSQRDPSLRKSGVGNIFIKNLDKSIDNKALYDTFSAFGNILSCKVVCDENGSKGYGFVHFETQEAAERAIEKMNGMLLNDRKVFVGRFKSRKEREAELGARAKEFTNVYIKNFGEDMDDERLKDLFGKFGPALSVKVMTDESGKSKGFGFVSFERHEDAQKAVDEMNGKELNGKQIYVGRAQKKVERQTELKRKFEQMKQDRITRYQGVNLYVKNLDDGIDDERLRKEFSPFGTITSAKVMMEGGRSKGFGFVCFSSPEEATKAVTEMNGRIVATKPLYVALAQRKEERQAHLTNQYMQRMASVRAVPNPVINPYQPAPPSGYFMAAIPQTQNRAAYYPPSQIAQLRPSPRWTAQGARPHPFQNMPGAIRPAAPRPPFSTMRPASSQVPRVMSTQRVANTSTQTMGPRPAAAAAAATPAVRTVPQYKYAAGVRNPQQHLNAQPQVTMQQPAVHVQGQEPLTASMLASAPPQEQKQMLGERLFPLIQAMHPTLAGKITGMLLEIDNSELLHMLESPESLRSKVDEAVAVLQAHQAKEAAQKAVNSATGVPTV

B1: GST-tagged human PABP-interacting protein 2 (Paip2) (natural protein, UniProt Q9BPZ3 1-127, looked up)
chain: MKDPSRSSTSPSIINEDVIINGHSHEDDNPFAEYMWMENEEEFNRQIEEELWEEEFIERCFQEMLEEEEEHEWFIPARDLPQTMDQIQDQFNDLVISDGSSLEDLVVKSNLNPNAKEFVPGVKYGNI
What is called kon is the second-order rate constant of association. A high value points to faster complex formation. For B1, the kon stood at 153000 M⁻¹ s⁻¹.

For the origin of these results see paper PMC3936760 (Nucleic Acids Research, 2013).
